B1: EGFP-HSETΔTail (domain or fragment, human, UniProt Q9BW19 139-673, looked up)
chain: LKGQLCDLNAELKRCRERTQTLDQENQQLQDQLRDAQQQVKALGTERTTLEGHLAKVQAQAEQGQQELKNLRACVLELEERLSTQEGLVQELQKKQVELQEERRGLMSQLEEKERRLQTSEAALSSSQAEVASLRQETVAQAALLTEREERLHGLEMERRRLHNQLQELKGNIRVFCRVRPVLPGEPTPPPGLLLFPSGPGGPSDPPTRLSLSRSDERRGTLSGAPAPPTRHDFSFDRVFPPGSGQDEVFEEIAMLVQSALDGYPVCIFAYGQTGSGKTFTMEGGPGGDPQLEGLIPRALRHLFSVAQELSGQGWTYSFVASYVEIYNETVRDLLATGTRKGQGGECEIRRAGPGSEELTVTNARYVPVSCEKEVDALLHLARQNRAVARTAQNERSSRSHSVFQLQISGEHSSRGLQCGAPLSLVDLAGSERLDPGLALGPGERERLRETQAINSSLSTLGLVIMALSNKESHVPYRNSKLTYLLQNSLGGSAKMLMFVNISPLEENVSESLNSLRFASKVNQCVIGTAQANRK
notes: HSET/KIFC1, Homo sapiens kinesin-14, amino acids 139-673 (stalk and motor, N-terminal tail deleted); also called pFASTBAC-HTa-EGFP-HSETΔTail; tailless HSET; source: Sf9 cells (baculovirus), purified (Ni-NTA, size exclusion chromatography); not shown: His6, N-terminal, kept; EGFP, N-terminal, kept
B2: EGFP-HSETΔMotor (domain or fragment, human, UniProt Q9BW19 1-304, looked up)
chain: MDPQRSPLLEVKGNIELKRPLIKAPSQLPLSGSRLKRRPDQMEDGLEPEKKRTRGLGATTKITTSHPRVPSLTTVPQTQGQTTAQKVSKKTGPRCSTAIATGLKNQKPVPAVPVQKSGTSGVPPMAGGKKPSKRPAWDLKGQLCDLNAELKRCRERTQTLDQENQQLQDQLRDAQQQVKALGTERTTLEGHLAKVQAQAEQGQQELKNLRACVLELEERLSTQEGLVQELQKKQVELQEERRGLMSQLEEKERRLQTSEAALSSSQAEVASLRQETVAQAALLTEREERLHGLEMERRRLHNQL
notes: HSET/KIFC1, Homo sapiens kinesin-14, amino acids 1-304 (tail and stalk, motor domain deleted); also called pET15b-HTa-EGFP-HSETΔMotor; source: E. coli BL21DE3, purified (Ni-NTA, size exclusion chromatography); not shown: His6, N-terminal, kept; EGFP, N-terminal, kept
B3: EGFP-HSET (full-length HSET/KIFC1, human kinesin-14, with N-terminal 6x His tag and EGFP) (natural protein, UniProt Q9BW19 1-673, looked up)
chain: MDPQRSPLLEVKGNIELKRPLIKAPSQLPLSGSRLKRRPDQMEDGLEPEKKRTRGLGATTKITTSHPRVPSLTTVPQTQGQTTAQKVSKKTGPRCSTAIATGLKNQKPVPAVPVQKSGTSGVPPMAGGKKPSKRPAWDLKGQLCDLNAELKRCRERTQTLDQENQQLQDQLRDAQQQVKALGTERTTLEGHLAKVQAQAEQGQQELKNLRACVLELEERLSTQEGLVQELQKKQVELQEERRGLMSQLEEKERRLQTSEAALSSSQAEVASLRQETVAQAALLTEREERLHGLEMERRRLHNQLQELKGNIRVFCRVRPVLPGEPTPPPGLLLFPSGPGGPSDPPTRLSLSRSDERRGTLSGAPAPPTRHDFSFDRVFPPGSGQDEVFEEIAMLVQSALDGYPVCIFAYGQTGSGKTFTMEGGPGGDPQLEGLIPRALRHLFSVAQELSGQGWTYSFVASYVEIYNETVRDLLATGTRKGQGGECEIRRAGPGSEELTVTNARYVPVSCEKEVDALLHLARQNRAVARTAQNERSSRSHSVFQLQISGEHSSRGLQCGAPLSLVDLAGSERLDPGLALGPGERERLRETQAINSSLSTLGLVIMALSNKESHVPYRNSKLTYLLQNSLGGSAKMLMFVNISPLEENVSESLNSLRFASKVNQCVIGTAQANRK
notes: HSET/KIFC1, Homo sapiens kinesin-14, amino acids 1-673; No tag cleavage is described; also called full-length EGFP-HSET; pFASTBAC-HTa-EGFP-HSET; source: Sf9 cells (baculovirus), purified (Ni-NTA, size exclusion chromatography); not shown: His6, N-terminal, kept; EGFP, N-terminal, kept
B4: EGFP-HSET-DoubleTail (other, human)
chain: MDPQRSPLLEVKGNIELKRPLIKAPSQLPLSGSRLKRRPDQMEDGLEPEKKRTRGLGATTKITTSHPRVPSLTTVPQTQGQTTAQKVSKKTGPRCSTAIATGLKNQKPVPAVPVQKSGTSGVPPMAGGKKPSKRPAWDLKGQLCDLNAELKRCRERTQTLDQENQQLQDQLRDAQQQVKALGTERTTLEGHLAKVQAQAEQGQQELKNLRACVLELEERLSTQEGLVQELQKKQVELQEERRGLMSQLEEKERRLQTSEAALSSSQAEVASLRQETVAQAALLTEREERLHGLEMERRRLHNQLQELGGSGGSMDPQRSPLLEVKGNIELKRPLIKAPSQLPLSGSRLKRRPDQMEDGLEPEKKRTRGLGATTKITTSHPRVPSLTTVPQTQGQTTAQKVSKKTGPRCSTAIATGLKNQKPVPAVPVQKSGTSGVPPMAGGKKPSKRPAW
notes: HSET/KIFC1, Homo sapiens kinesin-14, amino acids 1-307 (tail and stalk); flexible amino acid linker; HSET/KIFC1, Homo sapiens kinesin-14, amino acids 1-137 (second copy of the N-terminal tail in place of the motor domain); also called pET15b-HTa-EGFP-HSETDoubleTail; source: E. coli BL21DE3, purified (Ni-NTA, size exclusion chromatography); not shown: His6, N-terminal, kept; EGFP, N-terminal, kept

Experiments:
[1] = biological target: unlabeled HSET (full-length HSET with N-terminal 6x His tag, no EGFP) (human) (UniProt Q9BW19); assay: fluorescence intensity analysis of moving particles (TIRF); first frame of moving EGFP-HSET (with unlabeled tubulin) or moving Cy5-tubulin (10 nM, with 10 nM unlabeled HSET) on GMPCPP-MTs compared with single molecules adhered to glass; BRB80 + 50 mM KCl with 0.5 mg/mL casein
[2] = biological target: the molecule itself; assay: single-molecule stepwise photobleaching (TIRF); single EGFP-tagged molecules adhered to a glass surface; photobleaching traces compared with EGFP-XMCAK, a known dimer; monomers to dimer

Row | Molecule | brightness of moving Cy5-tubulin particles (with HSET) over single Cy5-tubulin molecules [1] | stoichiometry N [2]
1 | Cy5-tubulin (bovine brain tubulin labeled with NHS-Cy5, 100% labeled) (from UniProt Q6B856 1-445) (complex) | 11.8 fold | 
2 | B1 |  | 2
3 | B2 |  | 2
4 | B3 |  | 2
5 | B4 |  | 2
